According to patent US20210238302A1, “HIGH AFFINITY MONOCLONAL ANTIBODIES (MABS) AGAINST CELL SURFACE EXPRESSED HUMAN CARBONIC ANHYDRASE IX (HCA-IX), AND USES THEREOF” (NATIONAL RESEARCH COUNCIL OF CANADA, priority 2018, published 2021):
Several values for one entry are separate records, joined by “and”; a condition that tells them apart may be missing. Identical values can stand only once. Entries after “also recorded” stand apart in the source; their conditions may differ. Like-named read-outs stand apart in the source and are kept apart here.

What was measured:
[1] = Differential Scanning Calorimetry (DSC) thermostability; format: physicochemical; conditions: DSC 25° C. to 100° C., scan rate 90° C./hour; versus Cetuximab
Procedure: (scan rate 90° C./hour). The therapeutic anti-EGFR Ab Cetuximab, which has been proven to be a very stable under these conditions, was used as control.

[2] = molecular target: T1, rhCA-IX ECD (Homo sapiens, UniProt Q16790); test: Western blot of non-purified mAbs on purified CA-IX ECD antigen; format: binding; conditions: undiluted CM; non-reducing and reducing conditions
From the text: Anti-hCA-IX mAb 10F2 is shown as a positive control.

[3] = system: hCA-IX ECD fragments; test: Epitope mapping by Yeast Surface Display (whole yeast cell ELISA); format: binding, human; parameters: key: −: no binding; +: binding
Procedure: Yeast Surface Display (YSD; developed by the Wittrup lab) is used for presenting properly folded (ensured by the “quality-control” processes of the secretory pathway of the yeast) antigen fragments on the yeast cell surface through covalent linkage (FIG. 15A). […] The epitope mapping of the mAbs was performed using a whole yeast cell ELISA protocol. […] These experiments were performed on native and denatured yeast cells, where in both cases binding of each mAb was normalized to the anti-MYC signal. The ratio of each normalized anti-CA-IX mAb signal of native versus denatured hCA-IX peptide is thus indicative of the conformational nature of the mAb binding epitope. In the native hCA-IX experiments the commercial M75 mAb was used as a positive control; the epitope of this mAb is known (Zavada et al., 2000) and is located in hCA-IX's PG domain.

[4] = molecular target: T1, rhCA-IX ECD; format: biochemical
From the text: To determine whether these mAbs can inhibit the enzyme activity of the rhCA-IX ECD protein, we used an activity assay in which 4-Nitrophenyl acetate (4-NPA) is used as a substrate. […]

[5] = molecular target: T1, rhCA-IX ECD; test: Reverse Phase Protein Array (RPPA); format: binding
[6] = Cell viability; format: cell-based
[7] = molecular target: rhCA-IX ECD Monomer (Homo sapiens, UniProt Q16790)
Procedure: (§1) SPR experiments were carried out by capturing the CA-IX mAbs from the CM with an anti-mouse Fc antibody immobilized on the chip surface, after which rhCA-IX EDC mixture, or rhCA-IX EDC monomer or dimer were flowed over the mAb surface.

[8] = molecular target: rhCA-IX ECD Dimer (Homo sapiens, UniProt Q16790)
Procedure: as §1

[9] = molecular target: rhCA-IX ECD monomer or dimer (Homo sapiens, UniProt Q16790)
[10] = system: SK-RC-52 cells; test: Internalization of pHAb dye labeled mAbs; format: cell-based, human; conditions: antibody-pHAb dye conjugates, 37° C., 24 h
From the text: In addition, we also evaluated the internalization potential of these mAbs with the thought of using these enzyme-inhibiting mAbs to bring a toxic pay-load into cancer cells. For this, both mAbs, in addition to a negative control IgG, were labeled with a pH sensitive reactive dye (pHAb; Promega). Upon receptor-mediated internalization, these antibody-pHAb Dye conjugates traffick to the endosome and lysosomal vesicles where pH is acidic, causing the pHAb dye to fluoresce. CA-IX expressing SK-RC-52 expressing cells were incubated with these antibody-pHAb dye conjugates (10 μg/mL) and incubated at 37° C. (5% CO2, humidified environment) for 24 h (FIG. 18A) or coated with various concentrations of the conjugates for 30 min at 4° C., washed, and then transferred to 37° C. (5% CO2, humidified environment) for 24 h (FIG. 18B).

[11] = molecular target: rmCA-IX (Mus musculus, UniProt Q8VHB5); test: Cross-reactivity determination by SPR; format: binding, murine
From the text: (§2) hCA-IX is one of several hCAs that have been identified to date (see FIG. 1). […] In contrast to hCA-IX the expression pattern of hCA-XII is much more widespread and not as cancer specific as hCA-IX.

[12] = molecular target: T2, low hCA-IX expressing SK-RC-59 cells (Homo sapiens, UniProt Q16790); test: Flow cytometry binding, SK-RC-59 cells; format: cell-based; conditions: SK-RC-59 (low hCA-IX)
T2 construct: the non-transfected human renal tumor SK-RC-59 and SK-RC-52 cell lines; endogenous in cells; host or cells: SK-RC-52 (high hCA-IX), SK-RC-59 (low hCA-IX)
Procedure: These cell lines have been used in the literature for the screening of scFv Abs for binding to hCA-IX (Xu et al., 2011). Western blot analysis of these cell lines under reducing and non-reducing conditions (FIG. 8) confirmed the expression of hCA-IX in the SK-RC-52 cell line (indicated with a star), whereas no hCA-IX could be detected in the SK-RC-59 cell line. Equal protein quantities were loaded (BCA protein assay) which was confirmed by an actin blot.
Flow cytometry: mAbs were evaluated in a flow cytometry experiment using the SK-RC-59 and SK-RC-52 cell lines. As controls a commercially available mAb (R&D, Clone #303123, Cat #MAB2188) and the M75 mAb (generously supplied by Dr E Oosterwijk, Radboud University Nijmegen, The Netherlands) were used. Experiments were plotted per cell line (FIG. 9) using a double Y-axis (left Y-axis, % live cells, closed squares; right Y-axis, mean fluorescence intensity of the live population, closed circles; X-axis, experimental groups).

[13] = molecular target: rhCA-XII (Homo sapiens, UniProt O43570); test: Cross-reactivity determination by SPR; format: binding
From the text: as §2

[14] = molecular target: rhCA-XIV (Homo sapiens, UniProt Q9ULX7); test: Cross-reactivity determination by SPR; format: binding
From the text: as §2

[15] = molecular target: rhCA-IV (Homo sapiens, UniProt P22748); test: Cross-reactivity determination by SPR; format: binding
From the text: as §2

[16] = hybridoma-derived mAb, 1 μM rhCA-IX ECD dimer, mAb:rhCA-IX ECD 4:1
[17] = hybridoma-derived mAb, rhCA-IX ECD dimer
[18] = recombinant mAbs, rhCA-IX ECD monomer

Chain of rmCA-IX (Q8VHB5 32-437): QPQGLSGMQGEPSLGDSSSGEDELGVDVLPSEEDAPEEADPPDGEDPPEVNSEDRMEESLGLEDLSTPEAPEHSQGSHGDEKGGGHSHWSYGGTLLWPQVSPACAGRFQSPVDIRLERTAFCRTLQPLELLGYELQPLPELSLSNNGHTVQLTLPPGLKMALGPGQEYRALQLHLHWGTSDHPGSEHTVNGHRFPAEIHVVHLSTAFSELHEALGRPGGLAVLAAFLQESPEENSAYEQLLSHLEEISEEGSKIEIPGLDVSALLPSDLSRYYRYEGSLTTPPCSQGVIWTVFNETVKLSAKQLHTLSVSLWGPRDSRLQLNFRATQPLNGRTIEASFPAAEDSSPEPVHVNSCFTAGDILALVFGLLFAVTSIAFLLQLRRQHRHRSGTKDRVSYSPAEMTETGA
Chain of rhCA-IV (P22748 19-284): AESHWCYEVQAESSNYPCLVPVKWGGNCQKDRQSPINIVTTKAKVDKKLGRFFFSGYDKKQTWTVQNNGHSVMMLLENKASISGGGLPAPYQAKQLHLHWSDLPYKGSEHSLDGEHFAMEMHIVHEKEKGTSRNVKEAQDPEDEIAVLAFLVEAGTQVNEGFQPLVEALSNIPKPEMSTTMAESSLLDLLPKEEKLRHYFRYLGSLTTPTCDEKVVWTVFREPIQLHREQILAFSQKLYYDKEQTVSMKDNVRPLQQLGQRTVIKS
Chain of rhCA-XIV (Q9ULX7 16-337): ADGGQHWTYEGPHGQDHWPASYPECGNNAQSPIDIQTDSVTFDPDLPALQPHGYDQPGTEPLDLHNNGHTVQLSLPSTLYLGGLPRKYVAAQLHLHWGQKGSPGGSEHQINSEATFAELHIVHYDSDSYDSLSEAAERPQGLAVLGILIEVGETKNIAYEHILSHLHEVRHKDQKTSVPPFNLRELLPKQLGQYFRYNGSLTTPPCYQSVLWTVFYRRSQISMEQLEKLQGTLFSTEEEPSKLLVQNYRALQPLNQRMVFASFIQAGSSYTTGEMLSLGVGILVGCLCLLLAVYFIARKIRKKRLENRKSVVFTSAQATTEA
Chain of rhCA-XII (O43570 25-354): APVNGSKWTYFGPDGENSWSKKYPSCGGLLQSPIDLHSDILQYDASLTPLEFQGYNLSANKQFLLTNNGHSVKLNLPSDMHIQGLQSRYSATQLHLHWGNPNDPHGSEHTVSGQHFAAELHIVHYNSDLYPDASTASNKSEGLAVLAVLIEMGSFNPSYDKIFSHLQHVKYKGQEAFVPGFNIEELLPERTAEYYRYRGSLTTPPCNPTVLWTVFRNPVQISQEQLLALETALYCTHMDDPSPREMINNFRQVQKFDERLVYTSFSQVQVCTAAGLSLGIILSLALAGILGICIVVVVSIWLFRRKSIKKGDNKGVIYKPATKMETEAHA

B1: 9B6: mouse IgG2b monoclonal antibody inhibiting hCA-IX catalytic activity; SEQ ID NO.14 and 18; hybridoma-derived and recombinant (SEQ ID NO. 24 and 25) (antibody, V domains shown)
VL: DIVLTQSPSSLAVSLGQRATISCKASQSVDYDGNSYMNWFQQKPGQPPKLLIYEASSLESGIPARISGSGSGTDFTLNIHPVEEEDAATYYCQQSYEGPYTFGGGTKLEIK
VH: QVQLQQPGAELVKPGASVKLSCKASGYIFTTKWINWVKQRPGQGLEWIGNIYPGSSNTYYNEKFKNKATLTVDKSSNTAHLQLSSLTSEDSAVYYCARGIANWGQGTPVTVSA
thermostability [1]: slightly less stable than Cetuximab | Western blot binding to rhCA-IX ECD [2]: do not detect rhCA-IX ECD; also recorded: failed to bind | Anti-CA-IX Ab binding intensity (normalized on CA-IX_MYC expression on cells) ([3]; Denatured CA-IX protein, EBY100, No-plasmid, Strain Ctrl, Neg Ctrl (PNL6 series)): − | Anti-CA-IX Ab binding intensity (normalized on CA-IX_MYC expression on cells) ([3]; Denatured CA-IX protein, EBY100, No-plasmid, Strain Ctrl, Neg Ctrl (PNL200 series)): − | Anti-CA-IX Ab binding intensity (normalized on CA-IX_MYC expression on cells) ([3]; Denatured CA-IX protein, clone 1A, PNL6, Aga2-HA-CA9-MYC, fragment 1, aa 52-111, PG): − | Anti-CA-IX Ab binding intensity (normalized on CA-IX_MYC expression on cells) ([3]; Denatured CA-IX protein, clone 2B, PNL6, Aga2-HA-CA9-MYC, fragment 2, aa 38-136, +PG+): − | Anti-CA-IX Ab binding intensity (normalized on CA-IX_MYC expression on cells) ([3]; Denatured CA-IX protein, clone 3A, PNL6, Aga2-HA-CA9-MYC, fragment 3, aa 1-136, SP+PG+): − | Anti-CA-IX Ab binding intensity (normalized on CA-IX_MYC expression on cells) ([3]; Denatured CA-IX protein, clone 11B, PNL6, Aga2-HA-X-MYC, Plasmid Ctrl, Neg Ctrl): − | Anti-CA-IX Ab binding intensity (normalized on CA-IX_MYC expression on cells) ([3]; Denatured CA-IX protein, clone 12B, PNL200, CA9-Aga2-MYC, fragment 1, aa 52-111, PG): − | Anti-CA-IX Ab binding intensity (normalized on CA-IX_MYC expression on cells) ([3]; Denatured CA-IX protein, clone 13A, PNL200, CA9-Aga2-MYC, fragment 2, aa 38-136, +PG+): − | Anti-CA-IX Ab binding intensity (normalized on CA-IX_MYC expression on cells) ([3]; Denatured CA-IX protein, clone 14A, PNL200, CA9-Aga2-MYC, fragment 3, aa 1-136, SP+PG+): − | Anti-CA-IX Ab binding intensity (normalized on CA-IX_MYC expression on cells) ([3]; Denatured CA-IX protein, clone 22A, PNL200, X-Aga2-MYC, Plasmid Ctrl, Neg Ctrl): − | Anti-CA-IX Ab binding intensity (normalized on CA-IX_MYC expression on cells) ([3]; Native CA-IX protein, EBY100, No-plasmid, Strain Ctrl, Neg Ctrl (PNL6 series)): − | Anti-CA-IX Ab binding intensity (normalized on CA-IX_MYC expression on cells) ([3]; Native CA-IX protein, EBY100, No-plasmid, Strain Ctrl, Neg Ctrl (PNL200 series)): − | Anti-CA-IX Ab binding intensity (normalized on CA-IX_MYC expression on cells) ([3]; Native CA-IX protein, clone 1A, PNL6, Aga2-HA-CA9-MYC, fragment 1, aa 52-111, PG): − | Anti-CA-IX Ab binding intensity (normalized on CA-IX_MYC expression on cells) ([3]; Native CA-IX protein, clone 2B, PNL6, Aga2-HA-CA9-MYC, fragment 2, aa 38-136, +PG+): − | Anti-CA-IX Ab binding intensity (normalized on CA-IX_MYC expression on cells) ([3]; Native CA-IX protein, clone 3A, PNL6, Aga2-HA-CA9-MYC, fragment 3, aa 1-136, SP+PG+): − | Anti-CA-IX Ab binding intensity (normalized on CA-IX_MYC expression on cells) ([3]; Native CA-IX protein, clone 11B, PNL6, Aga2-HA-X-MYC, Plasmid Ctrl, Neg Ctrl): − | Anti-CA-IX Ab binding intensity (normalized on CA-IX_MYC expression on cells) ([3]; Native CA-IX protein, clone 12B, PNL200, CA9-Aga2-MYC, fragment 1, aa 52-111, PG): − | Anti-CA-IX Ab binding intensity (normalized on CA-IX_MYC expression on cells) ([3]; Native CA-IX protein, clone 13A, PNL200, CA9-Aga2-MYC, fragment 2, aa 38-136, +PG+): − | Anti-CA-IX Ab binding intensity (normalized on CA-IX_MYC expression on cells) ([3]; Native CA-IX protein, clone 14A, PNL200, CA9-Aga2-MYC, fragment 3, aa 1-136, SP+PG+): − | Anti-CA-IX Ab binding intensity (normalized on CA-IX_MYC expression on cells) ([3]; Native CA-IX protein, clone 22A, PNL200, X-Aga2-MYC, Plasmid Ctrl, Neg Ctrl): − | % rhCA-IX ECD Inhibition [4]: 42.59% | % rhCA-IX ECD Activity [4, 16]: 59.25% | % rhCA-IX ECD Inhibition [4, 16]: 40% and 40.75% | Comments ([4]; hybridoma-derived mAb, mAb:rhCA-IX ECD 4:1): Inhibition | rhCA-IX ECD enzyme activity inhibition ([4]; recombinant mAbs and Fabs, 0.5 μM each, rhCA-IX ECD 0.5 μM dimer, 4-NPA): 40% and 28% | Data1 ([4]; replicate 1 of % rhCA-IX ECD activity, hybridoma-derived mAb, mAb:rhCA-IX ECD 4:1): 59.25 | Data2 ([4]; replicate 2 of % rhCA-IX ECD activity, hybridoma-derived mAb, mAb:rhCA-IX ECD 4:1): 55.57 | Antigen in protein mixture Denatured (D) [5]: 1.74 | Antigen in protein mixture Native (C) [5]: 5.79 | mAb binding specificity [5]: rhCA-IX | preference for native or denatured rhCA-IX ECD [5]: slightly increased preference for the denatured protein | Ratio (A)/(B) (Possibly epitope related) ([5]; native/denatured purified antigen): 0.68 | Purified Antigen Denatured (B) ([5]; non-purified hybridoma mAb): 21.55 | Purified Antigen Native (A) ([5]; non-purified hybridoma mAb): 14.75 | reduction of cell viability [6]: active in reducing cell viability | off rate ([7]; Hybridoma-derived): slow | off rate ([7]; Recombinantly expressed, mIgG2b): slow | off rate ([8]; Hybridoma-derived, rhCA-IX ECD dimer): extremely slow | ka [8, 17]: 1.33E+05 | kd [8, 17]: 4.17E−18 | binding kinetics ([8]; recombinant and hybridoma-derived mAb, rhCA-IX ECD dimer (FIG. 12)): poor | competition between 4A2 and 9B6 for binding ([9]; hybridoma-derived mAbs, rhCA-IX ECD monomer or dimer): do not compete | competition between 4A2 and 9B6 for binding [9, 18]: do not compete for binding to hCA-IX | competition with cG250 for binding to hCA-IX [9, 18]: neither the 9B6 nor the 4A2 mAb competes with cG250 | internalization [10]: internalize in a CA-IX specific manner | SPR binding (cross-reactivity) [11]: no interaction was detected | binding to cell surface hCA-IX by flow cytometry [12]: virtually no binding was detected | SPR binding (cross-reactivity) [13]: no interaction was detected | SPR binding (cross-reactivity) [14]: no interaction was detected | SPR binding (cross-reactivity) [15]: no interaction was detected
